Reference: patent US20110206668A1

Target: murine MRC OX-2 (mouse) (UniProt O54901)
Assay: FACS of 10-day cultured mouse bone marrow derived dendritic cells, anti-CD200 and PE anti-mouse IgG

UniProt O54901, sequence (O54901 31-278 limits assumed): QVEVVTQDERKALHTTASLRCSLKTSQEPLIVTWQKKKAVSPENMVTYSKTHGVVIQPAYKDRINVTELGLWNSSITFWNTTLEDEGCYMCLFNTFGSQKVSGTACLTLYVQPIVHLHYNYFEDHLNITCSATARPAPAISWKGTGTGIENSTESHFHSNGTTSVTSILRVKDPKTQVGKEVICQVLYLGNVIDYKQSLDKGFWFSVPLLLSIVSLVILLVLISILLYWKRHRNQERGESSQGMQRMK

Work on “mouse IgG1 anti-rat CD200 (commercial anti-rat MRC OX-2 monoclonal antibody, Cedarlane Labs)” yielded a percent stained cells of 14%.
